This is an account of results in publication PMC4240654 (2014).

To fix the notation:
B1: BDD rFVIIIa (ReFacto) (protein)
chain 1: ATRRYYLGAVELSWDYMQSDLGELPVDARFPPRVPKSFPFNTSVVYKKTLFVEFTDHLFNIAKPRPPWMGLLGPTIQAEVYDTVVITLKNMASHPVSLHAVGVSYWKASEGAEYDDQTSQREKEDDKVFPGGSHTYVWQVLKENGPMASDPLCLTYSYLSHVDLVKDLNSGLIGALLVCREGSLAKEKTQTLHKFILLFAVFDEGKSWHSETKNSLMQDRDAASARAWPKMHTVNGYVNRSLPGLIGCHRKSVYWHVIGMGTTPEVHSIFLEGHTFLVRNHRQASLEISPITFLTAQTLLMDLGQFLLFCHISSHQHDGMEAYVKVDSCPEEPQLRMKNNEEAEDYDDDLTDSEMDVVRFDDDNSPSFIQIRSVAKKHPKTWVHYIAAEEEDWDYAPLVLAPDDRSYKSQYLNNGPQRIGRKYKKVRFMAYTDETFKTREAIQHESGILGPLLYGEVGDTLLIIFKNQASRPYNIYPHGITDVRPLYSRRLPKGVKHLKDFPILPGEIFKYKWTVTVEDGPTKSDPRCLTRYYSSFVNMERDLASGLIGPLLICYKESVDQRGNQIMSDKRNVILFSVFDENRSWYLTENIQRFLPNPAGVQLEDPEFQASNIMHSINGYVFDSLQLSVCLHEVAYWYILSIGAQTDFLSVFFSGYTFKHKMVYEDTLTLFPFSGETVFMSMENPGLWILGCHNSDFRNRGMTALLKVSSCDKNTGDYYEDSYEDISAYLLSKNNAIEPR
chain 2: SFQKKTRHYFIAAVERLWDYGMSSSPHVLRNRAQSGSVPQFKKVVFQEFTDGSFTQPLYRGELNEHLGLLGPYIRAEVEDNIMVTFRNQASRPYSFYSSLISYEEDQRQGAEPRKNFVKPNETKTYFWKVQHHMAPTKDEFDCKAWAYFSDVDLEKDVHSGLIGPLLVCHTNTLNPAHGRQVTVQEFALFFTIFDETKSWYFTENMERNCRAPCNIQMEDPTFKENYRFHAINGYIMDTLPGLVMAQDQRIRWYLLSMGSNENIHSIHFSGHVFTVRKKEEYKMALYNLYPGVFETVEMLPSKAGIWRVECLIGEHLHAGMSTLFLVYSNKCQTPLGMASGHIRDFQITASGQYGQWAPKLARLHYSGSINAWSTKEPFSWIKVDLLAPMIIHGIKTQGARQKFSSLYISQFIIMYSLDGKKWQTYRGNSTGTLMVFFGNVDSSGIKHNIFNPPIIARYIRLHPTHYSIRSTLRMELMGCDLNSCSMPLGMESKAISDAQITASSYFTNMFATWSPSKARLHLQGRSNAWRPQVNNPKEWLQVDFQKTMKVTGVTTQGVKSLLTSMYVKEFLISSSQDGHQWTLFFQNGKVKVFQGNQDSFTPVVNSLDPPLLTRYLRIHPQSWVHQIALRMEVLGCEAQDLY
modifications: B-domain deleted, thrombin-activated
B2: SC rFVIIIFc (thrombin-activated) (protein)
chain 1: B1 chain 1
chain 2: B1 chain 2
modifications: single-chain Fc fusion, thrombin-activated
B3: rFVIIIFc (thrombin-activated) (protein)
chain 1: B1 chain 1
chain 2: B1 chain 2
modifications: Fc fusion, thrombin-activated

This assay deals with Factor IXa (Homo sapiens, UniProt P00740). The assay is described as follows: FXa generation assay.
Sequence of Factor IXa (P00740 47-191): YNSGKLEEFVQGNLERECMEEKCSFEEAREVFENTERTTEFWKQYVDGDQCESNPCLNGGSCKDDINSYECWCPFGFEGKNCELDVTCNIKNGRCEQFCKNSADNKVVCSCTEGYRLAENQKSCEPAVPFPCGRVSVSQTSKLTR
As to B1, the Kd worked out at 4.5 nM. In other words, the single-digit nanomolar range.
To B2 belongs 4.1 nM; to B3, 5.5 nM.
